{"source": "patent US20190309023A1", "about": "(MAINLINE BIOSCIENCES, published 2019)", "binders": {"B1": {"name": "Cyclo[Mpa-Tyr-Lys(iPr)-(D-Arg)-2Nal-Gly-Cys]-Lys(iPr)-Gly-NH(Et) (peptide)", "peptide": "[Mpa]YK(iPr)[dR][2Nal]GCK(iPr)G-NHEt", "modifications": "disulfide 1-7; also: acetate salt", "notes": "Synthetic cyclic peptide, acetate salt; also called MLB-014"}, "B2": {"name": "Cyclo[Mpa-Tyr-Lys(iPr)-(D-Arg)-2Nal-Gly-Cys]-Lys(iPr)-Lys(lauroyl)-NH(Et) (peptide)", "peptide": "[Mpa]YK(iPr)[dR][2Nal]GCK(iPr)K(Lauroyl)-NHEt", "modifications": "disulfide 1-7; also: acetate salt", "notes": "Synthetic cyclic peptide, acetate salt; also called MLB-028"}, "B3": {"name": "Cyclo[Mpa-Tyr-Lys(iPr)-(D-Arg)-2Nal-Gly-Cys]-Lys(iPr)-Lys(palmitoyl)-NH(Et) (peptide)", "peptide": "[Mpa]YK(iPr)[dR][2Nal]GCK(iPr)K(Palmitoyl)-NHEt", "modifications": "disulfide 1-7; also: acetate salt", "notes": "Synthetic cyclic peptide, acetate salt; also called MLB-029"}, "B4": {"name": "Cyclo[Mpa-Tyr-Lys(iPr)-(D-Arg)-2Nal-Gly-Cys]-Lys(iPr)-Lys(Ac)-NH(Et) (peptide)", "peptide": "[Mpa]YK(iPr)[dR][2Nal]GCK(iPr)K(Ac)-NHEt", "modifications": "disulfide 1-7; also: acetate salt", "notes": "Synthetic cyclic peptide, acetate salt; also called MLB-027"}, "B5": {"name": "Cyclo[Mpa-Tyr-Lys(iPr)-(D-Arg)-2Nal-Gly-Cys]-Arg-Gly-(D-Phe)-Gly-NH2 (peptide)", "peptide": "[Mpa]YK(iPr)[dR][2Nal]GCRG[dF]G-NH2", "modifications": "disulfide 1-7; also: acetate salt", "notes": "Synthetic cyclic peptide, acetate salt; also called MLB-002"}, "B6": {"name": "Cyclo[Mpa-Tyr-Arg-(D-Arg)-2Nal-Gly-Cys]-Arg-Gly-(D-Phe)-Gly-NH2 (peptide)", "peptide": "[Mpa]YR[dR][2Nal]GCRG[dF]G-NH2", "modifications": "disulfide 1-7; also: acetate salt", "notes": "Synthetic cyclic peptide, acetate salt; also called MLB-001"}, "B7": {"name": "Phenylacetyl-cyclo[hCys-Tyr-Lys(iPr)-(D-Arg)-2Nal-Gly-Cys]-Lys(iPr)-Gly-NH2 (peptide)", "peptide": "PhAc-[hCys]YK(iPr)[dR][2Nal]GCK(iPr)G-NH2", "modifications": "disulfide 1-7; also: acetate salt", "notes": "Synthetic cyclic peptide, acetate salt; also called MLB-025"}, "B8": {"name": "Benzoyl-cyclo[hCys-Tyr-Lys(iPr)-(D-Arg)-2Nal-Gly-Cys]-Lys(iPr)-Gly-NH2 (peptide)", "peptide": "Bz-[hCys]YK(iPr)[dR][2Nal]GCK(iPr)G-NH2", "modifications": "disulfide 1-7; also: acetate salt", "notes": "Synthetic cyclic peptide, acetate salt; also called MLB-021"}, "B9": {"name": "Ac-cyclo[hCys-Tyr-Lys(iPr)-(D-Arg)-2Nal-Gly-Cys]-Lys(iPr)-Gly-NH2 (peptide)", "peptide": "Ac-[hCys]YK(iPr)[dR][2Nal]GCK(iPr)G-NH2", "modifications": "disulfide 1-7; also: acetate salt", "notes": "Synthetic cyclic peptide, acetate salt; also called MLB-010"}, "B10": {"name": "Benzoyl-cyclo[Cys-Tyr-Lys(iPr)-(D-Arg)-2Nal-Gly-Cys]-Lys(iPr)-Gly-NH2 (peptide)", "peptide": "Bz-CYK(iPr)[dR][2Nal]GCK(iPr)G-NH2", "modifications": "disulfide 1-7; also: acetate salt", "notes": "Synthetic cyclic peptide, acetate salt; also called MLB-023"}, "B11": {"name": "Benzoyl-cyclo[hCys-Tyr-Lys(iPr)-(D-Arg)-2Nal-Gly-Cys]-Lys(iPr)-Gly-NH(Et) (peptide)", "peptide": "Bz-[hCys]YK(iPr)[dR][2Nal]GCK(iPr)G-NHEt", "modifications": "disulfide 1-7; also: acetate salt", "notes": "Synthetic cyclic peptide, acetate salt; also called MLB-024"}, "B12": {"name": "Cyclo[Mpa-Arg-Tyr-Arg-2Nal-Gly-Cys]-Arg-Gly-(D-Phe)-Gly-NH2 (peptide)", "peptide": "[Mpa]RYR[2Nal]GCRG[dF]G-NH2", "modifications": "disulfide 1-7; also: acetate salt", "notes": "Synthetic cyclic peptide, acetate salt; also called MLB-011"}, "B13": {"name": "Cyclo[Mpa-Tyr-Lys(iPr)-(D-Arg)-2Nal-Gly-Cys]-Lys(iPr)-Gly-2Nal-Gly-NH2 (peptide)", "peptide": "[Mpa]YK(iPr)[dR][2Nal]GCK(iPr)G[2Nal]G-NH2", "modifications": "disulfide 1-7; also: acetate salt", "notes": "Synthetic cyclic peptide, acetate salt; also called MLB-008"}, "B14": {"name": "Cyclo[Mpa-Tyr-Lys(iPr)-(D-Arg)-2Nal-Gly-Cys]-(D-Arg)-Gly-(D-Phe)-Gly-NH2 (peptide)", "peptide": "[Mpa]YK(iPr)[dR][2Nal]GC[dR]G[dF]G-NH2", "modifications": "disulfide 1-7; also: acetate salt", "notes": "Synthetic cyclic peptide, acetate salt; also called MLB-004"}, "B15": {"name": "Benzoyl-cyclo[Cys-Tyr-Lys(iPr)-(D-Arg)-2Nal-Gly-hCys]-Lys(iPr)-Gly-NH2 (peptide)", "peptide": "Bz-CYK(iPr)[dR][2Nal]G[hCys]K(iPr)G-NH2", "modifications": "disulfide 1-7; also: acetate salt", "notes": "Synthetic cyclic peptide, acetate salt; also called MLB-022"}, "B16": {"name": "Ac-cyclo[hCys-Tyr-Lys(iPr)-(D-Arg)-2Nal-Gly-Cys]-Lys(iPr)-Gly-NH(Et) (peptide)", "peptide": "Ac-[hCys]YK(iPr)[dR][2Nal]GCK(iPr)G-NHEt", "modifications": "disulfide 1-7; also: acetate salt", "notes": "Synthetic cyclic peptide, acetate salt; also called MLB-026"}}, "note": "Bridge positions count the residues as written; N and C are the ends. Square brackets hold non-standard residues; d marks the D form. * marks the point of attachment. 2Nal = N[C@@H](Cc1ccc2ccccc2c1)C(=O)O; Palmitoyl = CCCCCCCCCCCCCCCC(=O)*; Lauroyl = CCCCCCCCCCCC(=O)*; hCys = N[C@@H](CCS)C(=O)O; PhAc = O=C(Cc1ccccc1)*; Bz = O=C(c1ccccc1)*; Mpa = O=C(O)CCS; iPr = CC(C)*"}
{"target": "T1, Human chemokine receptor CXCR4 (human, UniProt P61073 1-352)", "T1 construct": "whole, on cells; Used as membranes (0.5 ug membrane protein) of Chem-1 cells that express the receptor; also called C-X-C chemokine receptor type 4; fusin", "T1 sequence (P61073 whole entry)": "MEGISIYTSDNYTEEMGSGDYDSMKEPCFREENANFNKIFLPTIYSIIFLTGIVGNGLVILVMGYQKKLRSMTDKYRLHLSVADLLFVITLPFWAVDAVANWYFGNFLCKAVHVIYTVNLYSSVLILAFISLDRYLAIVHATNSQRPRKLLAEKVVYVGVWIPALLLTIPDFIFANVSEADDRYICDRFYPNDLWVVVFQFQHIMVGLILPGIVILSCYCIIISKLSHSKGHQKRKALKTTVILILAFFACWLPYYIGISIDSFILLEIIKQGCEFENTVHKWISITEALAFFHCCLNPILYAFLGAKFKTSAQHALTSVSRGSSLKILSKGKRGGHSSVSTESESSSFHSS", "assay": "competition with [125I]SDF-1α, human CXCR4 membranes (Chem-1 cells)", "protocol": "Human chemokine receptor CXCR4 expressed in Chem-1 cells were used in modified HEPES buffer pH 7.4. A 0.5 μg (Membrane protein may change from lot to lot, the concentration used were adjusted as necessary), aliquot was incubated with 0.03 nM [¹²⁵I]SDF-1α for 90 minutes at 25° C. Non-specific binding was estimated in the presence of 30 nM SDF-1α. Membranes were filtered and washed, filters were then counted to determine [¹²⁵I]SDF-1α specifically bound. Compounds were screened starting at 10 μM with 11-point dilutions (Valenzuela-Fernandez A, et al. J Biol Chem. 277(18):15677, 2002).", "units": {"Binding Kb": "nM", "IC50": "nM"}}
{"binder": "Bz-CYK(iPr)[dR][2Nal]GCK(iPr)G-NH2 (linker 1-7 via 1,2‑bisbromomethyl benzene; also: acetate salt, Acetate salt)", "note": "[MLB-030]", "Binding Kb": 0.39, "IC50": 1.3}
{"binder": "Ac-CYK(iPr)[dR][2Nal]GCK(iPr)G-NH2 (linker 1-7 via 1,2‑bisbromomethyl benzene; also: acetate salt, Acetate salt)", "note": "[MLB-032]", "Binding Kb": 0.12, "IC50": 0.4}
{"binder": "B1", "Binding Kb": 0.19, "IC50": 0.64}
{"binder": "B2", "Binding Kb": 2.5, "IC50": 8.2}
{"binder": "B3", "Binding Kb": 3.2, "IC50": 11}
{"binder": "B4", "Binding Kb": 0.15, "IC50": 0.48}
{"binder": "B5", "Binding Kb": 0.28, "IC50": 0.92}
{"binder": "B6", "Binding Kb": 7.3, "IC50": 24}
{"binder": "Ac-CYK(iPr)[dR][2Nal]GCK(iPr)G-NH2 (linker 1-7 via 1,3‑bisbromomethyl benzene; also: acetate salt, Acetate salt)", "note": "[MLB-033]", "Binding Kb": 0.99, "IC50": 3.3}
{"binder": "B7", "Binding Kb": 0.25, "IC50": 0.84}
{"binder": "B8", "Binding Kb": 0.13, "IC50": 0.42}
{"binder": "B9", "Binding Kb": 0.17, "IC50": 0.56}
{"binder": "B10", "Binding Kb": 1, "IC50": 3.4}
{"binder": "B11", "Binding Kb": 0.39, "IC50": 1.3}
{"binder": "B12", "Binding Kb": "> 1000"}
{"binder": "B13", "Binding Kb": 0.29, "IC50": 0.95}
{"binder": "B14", "Binding Kb": 0.21, "IC50": 0.7}
{"binder": "B15", "Binding Kb": 0.21, "IC50": 0.71}
{"binder": "B16", "Binding Kb": 0.27, "IC50": 0.89}
